Results on 17 molecules are retold here after US20220242936A1 (CHANGCHUN GENESCIENCE PHARMACEUTICAL, published 2022).

Substitutions are numbered along the chain they refer to. Where no end group is shown, it is not given here.

Experiment [1] deals with T1, biotinylated Aβ14-29 polypeptide (biotinylated (site not stated)).
T1 construct: also called Aβ14-29 (middle peptide fragment)
As to the kind of experiment: ELISA, biotinylated peptide on streptavidin plate. The protocol: (§1) Detection: After stopping the reaction, the microtiter plate was immediately placed into a microplate reader, the OD value was measured at 450 nm, and the original data was stored.
(§2) Data processing: The raw data were input into the software SoftMax Pro 6.2.1 for data processing.

For experiment [2], the target named is T2, biotinylated Aβ1-16 polypeptide (also: biotinylated (site not given here)).
T2 construct: also called Aβ1-16 (N-terminal peptide fragment)
T2 peptide: DAEFRHDSGYEVHHQK
As to the kind of experiment: ELISA, biotinylated peptide on streptavidin plate. Here is the method: as §1, §2

Experiment [3] concerns the target T3, biotinylated Aβ1-42 polypeptide (human, biotinylated (site not stated)).
T3 construct: also called Full length Aβ1-42
Briefly: ELISA, hybridoma supernatant on biotinylated peptide captured by streptavidin. The protocol:
as §1, §2

The target in experiment [4] is T1, biotinylated Aβ14-29 polypeptide. Described as above. The protocol: as §1, §2
Experiment [5] has as its target T2, biotinylated Aβ1-16 polypeptide. The experiment is described as above. Here is the method: as §1, §2
Experiment [6] concerns the target Aβ1-42 polypeptide (human). Briefly: cell-based or functional assay.
For experiment [7], the target named is T4, Aβ1-42 polypeptide (human).
T4 construct: Synthetic peptide; also called Aβ1-42 monomer; Aβ monomer
As to the kind of experiment: SPR, Biacore T200, antibody captured on Protein A chip, human Aβ antigen as analyte. Here is the method:
Biacore-T200 detection was performed, ProteinA chip was used to capture candidate antibodies or positive antibodies, different concentrations of human Aβ antigen were used to flow through the chip, and the fitting analysis was performed based on the collected data. […] The detection conditions were: capture time: 30 s; antigen binding time: 120 s; dissociation time: 900 s; flow rate: 30 μl/min. And the regeneration conditions were: 20 mM NaOH solution, flow rate: 30 μl/min.

Experiment [8] concerns the target T4, Aβ1-42 polypeptide. Briefly: ELISA EC50 on Aβ42 monomer, 2 ml transient transfection; table note: '-' means no combination; expression 61 mg/L.
Experiment [9] addresses T4, Aβ1-42 polypeptide. Briefly: ELISA EC50 on Aβ42 monomer, 2 ml transient transfection; table note: '-' means no combination; expression 3.12 mg/L.
Experiment [10] addresses T4, Aβ1-42 polypeptide. As to the kind of experiment: ELISA EC50 on Aβ42 monomer, 2 ml transient transfection; table note: '-' means no combination; expression 3.96 mg/L.
For experiment [11], the target named is T4, Aβ1-42 polypeptide. Briefly: ELISA EC50 on Aβ42 monomer, 2 ml transient transfection; table note: '-' means no combination; expression 5.42 mg/L.
The target of experiment [12] is T4, Aβ1-42 polypeptide. As to the kind of experiment: ELISA EC50 on Aβ42 monomer, 2 ml transient transfection; table note: '-' means no combination; expression 68.2 mg/L.
The target in experiment [13] is T4, Aβ1-42 polypeptide. As to the kind of experiment: ELISA EC50 on Aβ42 monomer, 2 ml transient transfection; table note: '-' means no combination; expression 3.88 mg/L.
Experiment [14] concerns the target T4, Aβ1-42 polypeptide. As to the kind of experiment: ELISA EC50 on Aβ42 monomer, 2 ml transient transfection; table note: '-' means no combination; expression 60 mg/L.
Experiment [15] concerns the target T4, Aβ1-42 polypeptide. As to the kind of experiment: ELISA EC50 on Aβ42 monomer, 2 ml transient transfection; table note: '-' means no combination; expression 3.68 mg/L.

T4 sequence (peptide, as listed by the source): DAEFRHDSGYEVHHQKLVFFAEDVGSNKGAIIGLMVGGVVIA
T3 sequence (peptide, as listed by the source): as above

B1: 066-4.26.14 (antibody, V domains shown)
VH: EVKLVESGGGLVKPGGSLKLSCAASGFTFRSYAMSWVRQTPEKRLEWVASISTTSNTYYPDSVKGRFTTSRDNARNIVYLQMSSLRSDDTAMYYCGRGVITNQAWFAYWGQGTLVTVSA
VL: DIVLTQSPATLSVTPGDSVSLSCRASQSISNNLHWYQQKSHESPRLLIKYASQSISGIPSRFSGSGSGTDFTLSVNNVGTEDFGMYFCQQSNSWPLTFGAGTKLELK
notes: Murine hybridoma antibody
For B1, the binding result in [1] was “no binding”. In experiment [2], the binding result is given as “no binding”. Also, the “OD value at 450 nm” value in experiment [3] came out at 1.93 OD. Further, the “OD value at 450 nm” value in [4] was found to be 0.0674 OD. Besides, the “OD value at 450 nm” value in [5] is 0.0602 OD. For the same molecule, in the experiment with Aβ1-42 polypeptide [6], the “relative fluorescence intensity (ThT, Aβ polymerization; PBS group = 1.0)” value was 0.46 relative to PBS group; the “relative fluorescence intensity (ThT, Aβ polymerization; hIgG = 1.00)” value was 0.7 relative to hIgG; the “relative value of LDH release (SHSY5Y cells with Aβ; Vehicle group = 1.0)” value was 1.2 relative to Vehicle group; the “relative value of LDH release (SHSY5Y cells with Aβ; hIgG = 1.00)” value was 1.2 relative to hIgG.

B2: 066-4.26.14 mouse-human chimeric antibody (antibody, human IgG1, V domains shown)
VH: B1 VH
VL: DIVLTQSPATLSVTPGDSVSLSCRASQSISNNLHWYQQKSHESPRLLIKYASQSISGIPSRFSGSGSGTDFTLSVNNVGTEDFGMYFCQQSNSWPLTFGAGTKLELKR
Consider B2, for which, in the experiment with Aβ1-42 polypeptide [7], the Kd is 12.6 nM, the koff was determined as 0.000333 s⁻¹ and the kon is 26500 M⁻¹ s⁻¹. Further, in the experiment with Aβ1-42 polypeptide [6], the “relative fluorescence intensity (ThT, Aβ polymerization; hIgG = 1.00)” value is 0.71 relative to hIgG and the “relative value of LDH release (SHSY5Y cells with Aβ; hIgG = 1.00)” value is 1.32 relative to hIgG.

B3: 066-4.26.14H1L2 (antibody, human IgG1, V domains shown)
VH: EVQLVESGGGLVKPGGSLRLSCAASGFTFRSYAMSWVRQAPGKGLEWVASISTTSNTYYPDSVKGRFTTSRDNAKNSLYLQMNSLRAEDTAVYYCGRGVITNQAWFAYWGQGTLVTVSS
VL: DIVLTQSPATLSVSPGERATLSCRASQSISNNLHWYQQKPGQAPRLLIKYASQSISGIPARFSGSGSGTDFTLTISSLQSEDFAVYFCQQSNSWPLTFGGGTKVEIKR
notes: Humanized full-length antibody; human IgG1 heavy constant and human kappa light constant (vectors pGS003-hIgG1CH, pGS003-hIgKCL)
For the molecule B3, in the experiment with Aβ1-42 polypeptide [8], the binding result is “no binding”.

B4: 066-4.26.14H5L4 (antibody, human IgG1, V domains shown)
VH: B3 VH with K13Q, A23V, A74S, S77T, L78V, N83S
VL: B3 VL with D1E, A9G, V13L, A60D, S77R, Q79E, S80P, F87Y
notes: as for B3
As to B4, the binding result with Aβ1-42 polypeptide [9] is listed as “no binding”.

B5: 066-4.26.14H4L4 (antibody, human IgG1, V domains shown)
VH: B3 VH with K13Q, L78V, N83S, A87D, V92M, T113I
VL: B3 VL with D1E, A9G, V13L, A60D, S77R, Q79E, S80P, F87Y
notes: as for B3
On to B5, for which the binding result with Aβ1-42 polypeptide [10] is reported as “no binding”.

B6: 066-4.26.14H3L1 (antibody, human IgG1, kappa, V domains shown)
VH: EVQLVQSGAEVKKPGESLKISCKGSGYSFRSYAMSWVRQMPGKGLEWVASISTTSNTYYPDSVKGRVTTSRDKSISTAYLQWSSLKASDTAMYYCGRGVITNQAWFAYWGQGTLVTVSS
VL: B3 VL with A19V, P40S, A60S, K103Q
notes: as for B3
With B6, the binding result with Aβ1-42 polypeptide [11] is recorded as “no binding”.

B7: 066-4.26.14H1L3 (antibody, human IgG1, V domains shown)
VH: B3 VH
VL: DIVLTQSPDFQSVTPKEKVTISCRASQSISNNLHWYQQKPDQSPKLLIKYASQSISGIPSRFSGSGSGTDFTLTINSLEAEDAAAYFCQQSNSWPLTFGPGTKVEIKR
notes: as for B3
Regarding B7, the binding result in the experiment with Aβ1-42 polypeptide [12] is given as “no binding”.

B8: 066-4.26.14H5L3 (antibody, human IgG1, V domains shown)
VH: B3 VH with K13Q, A23V, A74S, S77T, L78V, N83S
VL: B7 VL
notes: as for B3
Take B8: in the experiment with Aβ1-42 polypeptide [7], binding was characterised by a dissociation constant (Kd) of 32.5 nM, the koff came to 0.00046 s⁻¹ and the kon was 14200 M⁻¹ s⁻¹. Also, in the experiment with Aβ1-42 polypeptide [6], the “relative fluorescence intensity (ThT, Aβ polymerization; hIgG = 1.00)” value is 0.78 relative to hIgG and the “relative value of LDH release (SHSY5Y cells with Aβ; hIgG = 1.00)” value is 1.41 relative to hIgG.

B9: 066-4.26.14H4L2 (antibody, human IgG1, V domains shown)
VH: B3 VH with K13Q, L78V, N83S, A87D, V92M, T113I
VL: B3 VL
notes: as for B3
Consider B9, for which, in the experiment with Aβ1-42 polypeptide [7], the affinity, expressed as Kd, was 36.3 nM; the koff stood at 0.000463 s⁻¹; the kon was found to be 12800 M⁻¹ s⁻¹. Further, in the experiment with Aβ1-42 polypeptide [6], the “relative fluorescence intensity (ThT, Aβ polymerization; hIgG = 1.00)” value was 0.7 relative to hIgG and the “relative value of LDH release (SHSY5Y cells with Aβ; hIgG = 1.00)” value was 1.3 relative to hIgG.

B10: 066-4.26.14H2L3 (antibody, human IgG1, V domains shown)
VH: B3 VH with A40T, G42E, G44R, L78V, N83S, L114T
VL: B7 VL
notes: as for B3
In the experiment with Aβ1-42 polypeptide [7], B10 came in with a Kd of 25.8 nM, a koff of 0.000472 s⁻¹ and a kon of 18300 M⁻¹ s⁻¹. Moreover, in the experiment with Aβ1-42 polypeptide [6], the “relative fluorescence intensity (ThT, Aβ polymerization; hIgG = 1.00)” value was 0.67 relative to hIgG and the “relative value of LDH release (SHSY5Y cells with Aβ; hIgG = 1.00)” value is 1.42 relative to hIgG.

B11: 066-4.26.14H3L4 (antibody, human IgG1, kappa, V domains shown)
VH: B6 VH
VL: B3 VL with D1E, A9G, V13L, A60D, S77R, Q79E, S80P, F87Y
notes: as for B3
B11: in the experiment with Aβ1-42 polypeptide [13], the binding result is given as “no binding”.

B12: 066-4.26.14H1L1 (antibody, human IgG1, V domains shown)
VH: B3 VH
VL: B3 VL with A19V, P40S, A60S, K103Q
notes: as for B3
As to B12, in the experiment with Aβ1-42 polypeptide [14], the binding result is reported as “no binding”.

B13: 066-4.26.14H5L2 (antibody, human IgG1, V domains shown)
VH: B3 VH with K13Q, A23V, A74S, S77T, L78V, N83S
VL: B3 VL
notes: as for B3
In the case of B13, in the experiment with Aβ1-42 polypeptide [7], binding was put at a Kd of 20.8 nM, the koff was 0.000278 s⁻¹ and the kon came to 13400 M⁻¹ s⁻¹. In addition, in the experiment with Aβ1-42 polypeptide [6], the “relative fluorescence intensity (ThT, Aβ polymerization; hIgG = 1.00)” value was 0.67 relative to hIgG and the “relative value of LDH release (SHSY5Y cells with Aβ; hIgG = 1.00)” value is 1.26 relative to hIgG.

B14: 066-4.26.14H5L1 (antibody, human IgG1, V domains shown)
VH: B3 VH with K13Q, A23V, A74S, S77T, L78V, N83S
VL: B3 VL with A19V, P40S, A60S, K103Q
notes: as for B3
In the experiment with Aβ1-42 polypeptide [7], B14 returned a Kd of 24.8 nM, a koff of 0.000469 s⁻¹ and a kon of 18900 M⁻¹ s⁻¹. Further, in the experiment with Aβ1-42 polypeptide [6], the “relative fluorescence intensity (ThT, Aβ polymerization; hIgG = 1.00)” value was 0.68 relative to hIgG and the “relative value of LDH release (SHSY5Y cells with Aβ; hIgG = 1.00)” value was 1.37 relative to hIgG.

B15: 066-4.26.14H2L2 (antibody, human IgG1, V domains shown)
VH: B3 VH with A40T, G42E, G44R, L78V, N83S, L114T
VL: B3 VL
notes: as for B3
With B15, in the experiment with Aβ1-42 polypeptide [7], the affinity, expressed as Kd, was 22.5 nM; the koff turned out to be 0.000433 s⁻¹; the kon stood at 19200 M⁻¹ s⁻¹. Also, in the experiment with Aβ1-42 polypeptide [6], the “relative fluorescence intensity (ThT, Aβ polymerization; hIgG = 1.00)” value was 0.62 relative to hIgG and the “relative value of LDH release (SHSY5Y cells with Aβ; hIgG = 1.00)” value is 1.41 relative to hIgG.

B16: 066-4.26.14H3L5 (antibody, human IgG1, kappa, V domains shown)
VH: B6 VH
VL: B7 VL with D1E, S22T, I58V, A85T, F87Y, P100Q
notes: as for B3
As to B16, in the experiment with Aβ1-42 polypeptide [15], the binding result is given as “no binding”.

B17: 066-7.17.2 (antibody, V domains shown)
VH: EVQLVESGGGLVKPGGSLKLSCAASGFTFSSYGMHWVRQAPEKGLEWVAMIWYDGTKKYYSDSVKGRFTISRDNAKNTLFLQMTSLRSEDTAMYYCARDRGIGTRHGPYFMDVWGQGTSVTVSS
VL: DIQMNQSPSSLSASLGDTITITCHARHNVRSYLNWYQQKPGNIPKLLIYAASSQQRGVPSRFSGSGSGTGFTLTISSLQPEDIATYYCLQSFGTPLTFGGGTKLEIK
For the molecule B17, the “OD value at 450 nm” value in [3] is 1.08 OD; in experiment [4] it was 0.0612 OD; in [5], 0.92 OD.
